Test results: patent publication US20060034863A1 (CHEMOCENTRYX, published 2006)

What was measured:
[1] = target: T1, formyl peptide receptor like 1 (FPRL1) (human, UniProt P25090 1-351); assay: 125I-WKYMVm displacement on FPRL1-L1.2 transfectants and human monocytes
T1 construct: whole, on cells; also called FPRL1-L1.2 transfectants; L1.2 FPRL1 Cells
T1 sequence (looked up): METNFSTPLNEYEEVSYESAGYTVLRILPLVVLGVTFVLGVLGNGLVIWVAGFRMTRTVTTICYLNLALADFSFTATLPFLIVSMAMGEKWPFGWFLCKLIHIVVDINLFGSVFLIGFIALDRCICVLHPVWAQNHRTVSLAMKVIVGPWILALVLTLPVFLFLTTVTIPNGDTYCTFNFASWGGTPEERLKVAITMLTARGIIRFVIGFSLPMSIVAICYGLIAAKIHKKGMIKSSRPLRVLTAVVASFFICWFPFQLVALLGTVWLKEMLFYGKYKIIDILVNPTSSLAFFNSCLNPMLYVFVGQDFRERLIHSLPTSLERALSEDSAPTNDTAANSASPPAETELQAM
Source text: (§1) The IC50 for each interaction was derived from non-linear least squares curve fitting of the data by using Prism software (GraphPad Software).

[2] = target: MIP-1α binding sites on human monocytes (human); assay: displacement of 125I-MIP-1α from human monocytes, filter binding
[3] = target: T2, human chemokine receptor CCR1 (human, UniProt P32246 1-355); assay: displacement of 125I-MIP-1α from HEK293-CCR1 cells, filter binding, 3 h at 4°C
T2 construct: whole, on cells; also called HEK293-CCR1 transfectants
T2 sequence (looked up): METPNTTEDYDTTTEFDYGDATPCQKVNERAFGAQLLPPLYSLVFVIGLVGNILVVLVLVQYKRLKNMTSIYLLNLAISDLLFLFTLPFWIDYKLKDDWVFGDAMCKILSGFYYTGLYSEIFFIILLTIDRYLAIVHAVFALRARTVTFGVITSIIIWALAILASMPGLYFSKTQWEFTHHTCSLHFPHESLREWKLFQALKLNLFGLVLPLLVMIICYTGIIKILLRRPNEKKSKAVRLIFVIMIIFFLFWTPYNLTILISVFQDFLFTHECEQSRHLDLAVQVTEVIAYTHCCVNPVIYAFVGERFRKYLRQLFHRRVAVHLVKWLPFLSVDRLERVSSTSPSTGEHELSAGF
Protocol: (§2) The binding characteristics of CCL23 variants was compared in human CCR1 expressing cells. […] Reactions mixtures were aspirated onto PEI-treated GF/B glass filters using a cell harvester (Packard). The filters were washed twice (25 mM HEPES, 500 mM NaCl, 1 mM CaCl₂, 5 mM MgCl₂, adjusted to pH 7.1). Scintillant (MicroScint-10; 35 μl) was added to dried filters and the filiters counted in a Packard Topcount scintillation counter. Data were analyzed and plotted using Prism software (GraphPad Software, San Diego, Calif.).

[4] = target: T2, human chemokine receptor CCR1; assay: displacement of 125I-MIP-1α from HEK293-CCR1 cells
Protocol: as §2

[5] = target: T1, formyl peptide receptor like 1 (FPRL1); assay: cell-based or functional assay
[6] = target: T1, formyl peptide receptor like 1 (FPRL1); assay: displacement of 0.01 nM 125I-WKYMVm from L1.2 FPRL1 cells, 3 h at 4°C
Source text: as §1

[7] = target: T1, formyl peptide receptor like 1 (FPRL1); assay: displacement of 0.01 nM 125I-WKYMVm from human monocytes, 3 h at 4°C
Source text: as §1

[8] = target: MIP-1α binding sites on human monocytes (human); assay: 125I-MIP-1α competition binding on human monocytes against HEK293-CCR1 cells
[9] = target: T1, formyl peptide receptor like 1 (FPRL1); assay: cell-based or functional assay; remark: listed apart in the source

| Binder | IC50 [2] [nM] | IC50 [3] [nM] | Induction of Calcium Flux in FPRL1 L1.2 Cells (IC 50) [5] [nM] | other results |
| --- | --- | --- | --- | --- |
| CKβ8-1(1-116) (ligand, Human recombinant chemokine bought from R&D Systems; also called CCL23 variant) RVTKDAETEFMMSKLPLENPVLLDMLWRRKIGPQMTLSHAAGFHATSADCCISYTPRSIPCSLLESYFETNSECSKPGVIFLTKKGRRFCANPSDKQVQVCMRMLKLDTRIKTRKN | 55 | 206 | – | binding result [1]: no binding |
| CKβ8-1(25-116) (ligand, Human recombinant chemokine bought from R&D Systems; NH2-terminal truncated form of CKβ8-1; also called CCL23 variant) MLWRRKIGPQMTLSHAAGFHATSADCCISYTPRSIPCSLLESYFETNSECSKPGVIFLTKKGRRFCANPSDKQVQVCMRMLKLDTRIKTRKN | 5.1 | 112 | 11 | fold IC50 change against CKβ8-1(1-116) [4]: 1 fold; IC50 [6]: 196 nM; IC50 [7]: 31 nM; fold higher MIP-1α displacement activity on monocytes than on HEK293-CCR1 cells [8]: > 10 fold; EC50 of calcium flux dose response in FPRL1-L1.2 transfectants [9]: 10 to 20 nM |
| MLWRRKIGPQMTLSH [SHAAGtide truncated variant CCXP3 (SEQ ID NO: 3)] | – | – | 68 | – |
| CKβ8(25-99) (ligand, Human recombinant chemokine bought from R&D Systems; also called CCL23 variant; CKβ (25-99)) RFHATSADCCISYTPRSIPCSLLESYFETNSECSKPGVIFLTKKGRRFCANPSDKQVQVCMRMLKLDTRIKTRKN | 0.25 | 1.34 | – | binding result [1]: no binding; fold IC50 change against CKβ8(1-99) [4]: 40 fold |
| MLWRRKIGPQMT [SHAAGtide truncated variant CCXP5 (SEQ ID NO: 5)] | – | – | 7.4 | – |
| CKβ8(1-99) (ligand, Human recombinant chemokine bought from R&D Systems; also called CCL23 variant; CKβ (1-99)) RVTKDAETEFMMSKLPLENPVLLDRFHATSADCCISYTPRSIPCSLLESYFETNSECSKPGVIFLTKKGRRFCANPSDKQVQVCMRMLKLDTRIKTRKN | 10.3 | 64 | – | binding result [1]: no binding |
| MLWRRKIGPQMTLSHAAG [SHAAGtide (SEQ ID NO: 1)] | – | – | 150 | – |
| MLWRRKIGPQM [SHAAGtide truncated variant CCXP8 (SEQ ID NO: 8)] | – | – | 45 | – |
| MLWRRKIGPQMTLSHAAY [SHAAYtide (SEQ ID NO: 6)] | – | – | 38 | – |
| MIP-1α (ligand, human, UniProt P10147 27-92, looked up, also called macrophage inflammatory protein) ADTPTACCFSYTSRQIPQNFIADYFETSSQCSKPGVIFLTKRSRQVCADPSEEWVQKYVSDLELSA | 0.27 | 0.54 | – | – |
| RRKIGPQMTLSHAAG [SHAAGtide truncated variant CCXP2 (SEQ ID NO: 2)] | – | – | > 50000 | – |
